The text below walks through data of paper PMC9777161 (2022).

Experiment [1] has as its target T1, Cytochrome c oxidase (Bos taurus, UniProt P68530).
T1 chain: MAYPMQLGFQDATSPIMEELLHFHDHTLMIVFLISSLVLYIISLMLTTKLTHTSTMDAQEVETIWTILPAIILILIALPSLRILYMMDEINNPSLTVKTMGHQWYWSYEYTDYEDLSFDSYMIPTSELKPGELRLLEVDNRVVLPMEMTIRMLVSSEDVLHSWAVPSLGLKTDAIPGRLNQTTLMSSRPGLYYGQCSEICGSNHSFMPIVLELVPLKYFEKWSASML
Description: analytical ultracentrifugation.

Experiment [2] concerns the target T2, Cytochrome c oxidase (Bos taurus, UniProt P68530).
T2 chain: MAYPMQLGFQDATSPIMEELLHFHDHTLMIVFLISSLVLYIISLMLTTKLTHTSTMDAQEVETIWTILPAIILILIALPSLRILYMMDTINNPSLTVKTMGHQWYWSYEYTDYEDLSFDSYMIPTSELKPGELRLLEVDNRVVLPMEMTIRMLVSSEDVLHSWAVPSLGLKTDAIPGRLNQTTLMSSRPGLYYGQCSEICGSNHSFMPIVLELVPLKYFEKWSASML
Briefly: analytical ultracentrifugation.

The target of experiment [3] is T1, Cytochrome c oxidase. Briefly: laser flash photolysis.

B1: Cytochrome c (protein)
chain: not shown
In turn, B1 came in with a Kd with Cytochrome c oxidase [1] of 28.4 µM.

B2: Cytochrome c (protein)
chain: not shown
Consider B2, for which the results for the Kd with Cytochrome c oxidase [2] and with Cytochrome c oxidase [1] were 2.1 µM and 4.7 µM, respectively.

B3: Ru-39-Cytochrome c (protein)
chain: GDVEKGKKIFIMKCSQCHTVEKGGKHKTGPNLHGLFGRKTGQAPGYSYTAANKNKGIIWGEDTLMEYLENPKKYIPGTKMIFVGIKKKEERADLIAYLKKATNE
modifications: (dimethylbipyridine)(bisbipyridine)ruthenium at Cys-39
B3 yielded an equilibrium dissociation constant (Kd) with Cytochrome c oxidase [3] of 8 µM.
